Targets include DLG1_2, Q12959; HTRA1, Q92743; LIMK2, P53671; MAGI2_2, Q86UL8; MAGI2_3, Q86UL8; NHERF4_4, Q86UT5; PDZRN4_1, Q6ZMN7.
What all share (assay): holdup assay
Holding throughout (set-up): key: below the threshold = too weak to quantify, mostly under pKd 3.1 to 4
Common to all, as to conditions: plain residues with an end cap or a label only (N-terminal biotin on a linker: ado-ado)

A further experiment deals with T1, APBA1_1, Q02410.
T1 sequence (Q02410 651-752, limits assumed, looked up): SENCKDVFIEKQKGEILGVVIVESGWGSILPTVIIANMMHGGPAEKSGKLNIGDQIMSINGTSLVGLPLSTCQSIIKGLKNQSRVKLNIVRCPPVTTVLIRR

The target of a further experiment is T2, CARD11, Q9BXL7.
T2 sequence (Q9BXL7 662-765, limits assumed, looked up): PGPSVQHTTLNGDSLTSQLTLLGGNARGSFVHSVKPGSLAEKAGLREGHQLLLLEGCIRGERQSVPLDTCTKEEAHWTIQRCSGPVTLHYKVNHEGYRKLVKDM

For the next experiment, the target named is T3, DFNB31_1, Q9P202.
T3 sequence (Q9P202 135-233, limits assumed, looked up): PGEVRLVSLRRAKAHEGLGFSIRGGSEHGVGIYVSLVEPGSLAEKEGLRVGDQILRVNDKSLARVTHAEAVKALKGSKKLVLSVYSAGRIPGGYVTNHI

The target in the next experiment is T4, DFNB31_2, Q9P202.
T4 sequence (Q9P202 274-371, limits assumed, looked up): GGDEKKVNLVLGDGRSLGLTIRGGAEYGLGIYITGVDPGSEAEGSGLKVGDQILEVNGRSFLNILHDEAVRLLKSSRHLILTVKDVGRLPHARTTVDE

The target in the next experiment is T5, DFNB31_3, Q9P202.
T5 sequence (Q9P202 811-907, limits assumed, looked up): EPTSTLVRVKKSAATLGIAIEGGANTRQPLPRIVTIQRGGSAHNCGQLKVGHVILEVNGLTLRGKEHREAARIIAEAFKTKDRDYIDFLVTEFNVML

In another experiment the target is T6, DVL3, Q92997.
T6 sequence (Q92997 244-331, limits assumed, looked up): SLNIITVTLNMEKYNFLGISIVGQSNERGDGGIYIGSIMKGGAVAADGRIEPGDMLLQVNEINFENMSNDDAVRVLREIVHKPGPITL

The next experiment has as its target T7, FRMPD1, Q5SYB0.
T7 sequence (Q5SYB0 52-145, limits assumed, looked up): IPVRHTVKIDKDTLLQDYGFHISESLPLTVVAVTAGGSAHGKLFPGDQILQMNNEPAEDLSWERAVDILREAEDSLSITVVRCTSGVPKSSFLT

In another experiment the target is T8, GRIP1_5, Q9Y3R0.
T8 sequence (Q9Y3R0 568-668, limits assumed, looked up): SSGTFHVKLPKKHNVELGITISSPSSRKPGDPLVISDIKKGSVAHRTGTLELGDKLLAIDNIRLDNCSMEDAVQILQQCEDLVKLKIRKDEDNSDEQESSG

Another experiment has as its target T9, HTRA4, P83105.
T9 sequence (P83105 378-476, limits assumed, looked up): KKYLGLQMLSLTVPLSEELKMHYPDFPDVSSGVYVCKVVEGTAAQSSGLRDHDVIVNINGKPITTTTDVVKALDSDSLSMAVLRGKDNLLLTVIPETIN

For the next experiment, the target named is T10, LIN7C, Q9NUP9.
T10 sequence (Q9NUP9 88-185, limits assumed, looked up): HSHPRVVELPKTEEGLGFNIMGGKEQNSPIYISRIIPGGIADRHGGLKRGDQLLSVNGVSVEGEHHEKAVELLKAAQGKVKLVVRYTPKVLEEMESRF

Another experiment has as its target T11, RAPGEF6, Q8TEU7.
T11 sequence (Q8TEU7 525-625, limits assumed, looked up): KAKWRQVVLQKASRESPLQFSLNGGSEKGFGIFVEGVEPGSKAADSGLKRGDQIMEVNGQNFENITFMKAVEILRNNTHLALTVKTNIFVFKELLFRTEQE

The target of a further experiment is T12, SHANK1, Q9Y566.
T12 sequence (Q9Y566 658-767, limits assumed, looked up): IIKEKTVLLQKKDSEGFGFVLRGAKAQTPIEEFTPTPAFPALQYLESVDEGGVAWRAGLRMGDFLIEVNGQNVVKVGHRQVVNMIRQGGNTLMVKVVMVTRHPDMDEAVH

For the next experiment, the target named is T13, TIAM2, Q8IVF5.
T13 sequence (Q8IVF5 885-986, limits assumed, looked up): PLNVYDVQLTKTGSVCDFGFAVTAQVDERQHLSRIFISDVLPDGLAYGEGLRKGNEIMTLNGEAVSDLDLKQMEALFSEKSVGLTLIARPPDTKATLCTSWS

The target of another experiment is T14, TJP3_3, O95049.
T14 sequence (O95049 375-456, limits assumed, looked up): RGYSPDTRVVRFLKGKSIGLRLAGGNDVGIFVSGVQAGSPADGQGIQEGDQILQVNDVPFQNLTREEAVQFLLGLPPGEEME

In another experiment the target is T15, TX1BP3, O14907.
T15 sequence (O14907 10-122, limits assumed, looked up): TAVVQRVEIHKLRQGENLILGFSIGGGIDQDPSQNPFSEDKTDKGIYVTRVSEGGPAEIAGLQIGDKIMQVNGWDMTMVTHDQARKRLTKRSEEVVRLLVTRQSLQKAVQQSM

A word on the pKd: it is −log10 of the Kd, conventionally taken in molar units.

MAGI2_3, Q86UL8, sequence (Q86UL8 600-682): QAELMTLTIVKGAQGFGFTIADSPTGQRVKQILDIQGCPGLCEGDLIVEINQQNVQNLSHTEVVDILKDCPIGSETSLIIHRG
NHERF4_4, Q86UT5, sequence (Q86UT5 464-550): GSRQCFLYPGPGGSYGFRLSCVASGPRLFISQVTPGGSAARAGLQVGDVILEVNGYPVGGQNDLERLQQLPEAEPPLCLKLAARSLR
MAGI2_2, Q86UL8, sequence (Q86UL8 410-522): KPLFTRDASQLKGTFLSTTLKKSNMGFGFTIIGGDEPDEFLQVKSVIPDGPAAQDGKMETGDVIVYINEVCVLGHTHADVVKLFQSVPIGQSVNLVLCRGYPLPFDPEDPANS
HTRA1, Q92743, sequence (Q92743 360-477): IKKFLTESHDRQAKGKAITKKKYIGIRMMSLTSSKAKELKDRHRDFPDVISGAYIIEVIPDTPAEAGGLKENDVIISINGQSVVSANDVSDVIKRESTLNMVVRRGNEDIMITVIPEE
PDZRN4_1, Q6ZMN7, sequence (Q6ZMN7 213-318): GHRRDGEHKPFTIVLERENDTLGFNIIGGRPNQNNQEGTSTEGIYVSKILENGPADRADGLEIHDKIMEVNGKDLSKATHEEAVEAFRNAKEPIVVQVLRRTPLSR
DLG1_2, Q12959, sequence (Q12959 314-412): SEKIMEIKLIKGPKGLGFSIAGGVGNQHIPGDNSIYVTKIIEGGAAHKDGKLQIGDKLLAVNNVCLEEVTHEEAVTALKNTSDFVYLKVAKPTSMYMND
LIMK2, P53671, sequence (P53671 143-248): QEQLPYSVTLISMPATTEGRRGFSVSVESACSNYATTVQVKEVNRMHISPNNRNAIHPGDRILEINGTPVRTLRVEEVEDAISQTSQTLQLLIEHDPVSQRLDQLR

As for EKCGKEFSEF [PRKACA, P17612], the pKd entry with APBA1_1, Q02410 was “below the threshold”; in the experiment with CARD11, Q9BXL7 it was “below the threshold”; in the experiment with DFNB31_1, Q9P202, “below the threshold”; with DFNB31_2, Q9P202 it was “below the threshold”; with DFNB31_3, Q9P202 it was “below the threshold”; with DLG1_2, Q12959 it was 3.52. Also, the pKd entry with DVL3, Q92997 is listed as “below the threshold”; with FRMPD1, Q5SYB0, “below the threshold”; in the experiment with GRIP1_5, Q9Y3R0 it was “below the threshold”; in the experiment with HTRA1, Q92743, “below the threshold”; with HTRA4, P83105, “below the threshold”; with LIMK2, P53671, “below the threshold”. The pKd entry in the experiment with LIN7C, Q9NUP9 is on record as “below the threshold”; with MAGI2_2, Q86UL8 it was “below the threshold”; in the experiment with MAGI2_3, Q86UL8, “below the threshold”; with NHERF4_4, Q86UT5, “below the threshold”; with PDZRN4_1, Q6ZMN7 it was “below the threshold”; with RAPGEF6, Q8TEU7, “below the threshold”. The pKd entry was “below the threshold” in the experiment with SHANK1, Q9Y566; 4.13 with TIAM2, Q8IVF5; “below the threshold” with TJP3_3, O95049; “below the threshold” with TX1BP3, O14907.

As for EDLEDEWEVI [TECPR2, O15040], the pKd result is “below the threshold” with APBA1_1, Q02410; “below the threshold” in the experiment with CARD11, Q9BXL7; “below the threshold” with DFNB31_1, Q9P202; “below the threshold” with DFNB31_2, Q9P202; 3.76 with DFNB31_3, Q9P202; “below the threshold” with DLG1_2, Q12959. The pKd entry with DVL3, Q92997 is “below the threshold”; with FRMPD1, Q5SYB0, “below the threshold”; in the experiment with GRIP1_5, Q9Y3R0, “below the threshold”; with HTRA1, Q92743, 5.29; with HTRA4, P83105, “below the threshold”; with LIMK2, P53671 it was “below the threshold”. Also, the pKd entry was “below the threshold” in the experiment with LIN7C, Q9NUP9; “below the threshold” with MAGI2_2, Q86UL8; “below the threshold” in the experiment with MAGI2_3, Q86UL8; “below the threshold” in the experiment with NHERF4_4, Q86UT5; “below the threshold” in the experiment with PDZRN4_1, Q6ZMN7; “below the threshold” with RAPGEF6, Q8TEU7. For the same molecule, the pKd entry in the experiment with SHANK1, Q9Y566 is “below the threshold”; with TIAM2, Q8IVF5, 3.98; with TJP3_3, O95049, “below the threshold”; with TX1BP3, O14907, “below the threshold”.

On to QLSFNTDTLC [ABCA2, Q9BZC7], for which the pKd entry was “below the threshold” with APBA1_1, Q02410; “below the threshold” with CARD11, Q9BXL7; “below the threshold” with DFNB31_1, Q9P202; “below the threshold” with DFNB31_2, Q9P202; “below the threshold” with DFNB31_3, Q9P202; 3.88 in the experiment with DLG1_2, Q12959. In addition, the negative-log Kd (pKd) result is “below the threshold” with DVL3, Q92997; “below the threshold” in the experiment with FRMPD1, Q5SYB0; “below the threshold” with GRIP1_5, Q9Y3R0; 4.11 in the experiment with HTRA1, Q92743; “below the threshold” with HTRA4, P83105; “below the threshold” with LIMK2, P53671. For the same molecule, the pKd entry is “below the threshold” with LIN7C, Q9NUP9; “below the threshold” in the experiment with MAGI2_2, Q86UL8; “below the threshold” in the experiment with MAGI2_3, Q86UL8; “below the threshold” with NHERF4_4, Q86UT5; “below the threshold” in the experiment with PDZRN4_1, Q6ZMN7; “below the threshold” in the experiment with RAPGEF6, Q8TEU7. The pKd result in the experiment with SHANK1, Q9Y566 was “below the threshold”; in the experiment with TIAM2, Q8IVF5 it was 4.13; with TJP3_3, O95049, “below the threshold”; with TX1BP3, O14907, 4.04.

For the origin of these results see PMC9482650, “Quantitative fragmentomics allow affinity mapping of interactomes” (Nature Communications, 2022).
